Tests used:
Assay type in all cases: cell-based
[1] = target: T1, CLPTM1 (Homo sapiens, UniProt O96005); experiment: Detection of NKG2D in NK-92 cells after extended GDF15 stimulation; conditions: overnight GDF15 stimulation, FIG. 21A
T1 construct: endogenous in cells; host or cells: NK-92 cells
T1 sequence (O96005 1-669): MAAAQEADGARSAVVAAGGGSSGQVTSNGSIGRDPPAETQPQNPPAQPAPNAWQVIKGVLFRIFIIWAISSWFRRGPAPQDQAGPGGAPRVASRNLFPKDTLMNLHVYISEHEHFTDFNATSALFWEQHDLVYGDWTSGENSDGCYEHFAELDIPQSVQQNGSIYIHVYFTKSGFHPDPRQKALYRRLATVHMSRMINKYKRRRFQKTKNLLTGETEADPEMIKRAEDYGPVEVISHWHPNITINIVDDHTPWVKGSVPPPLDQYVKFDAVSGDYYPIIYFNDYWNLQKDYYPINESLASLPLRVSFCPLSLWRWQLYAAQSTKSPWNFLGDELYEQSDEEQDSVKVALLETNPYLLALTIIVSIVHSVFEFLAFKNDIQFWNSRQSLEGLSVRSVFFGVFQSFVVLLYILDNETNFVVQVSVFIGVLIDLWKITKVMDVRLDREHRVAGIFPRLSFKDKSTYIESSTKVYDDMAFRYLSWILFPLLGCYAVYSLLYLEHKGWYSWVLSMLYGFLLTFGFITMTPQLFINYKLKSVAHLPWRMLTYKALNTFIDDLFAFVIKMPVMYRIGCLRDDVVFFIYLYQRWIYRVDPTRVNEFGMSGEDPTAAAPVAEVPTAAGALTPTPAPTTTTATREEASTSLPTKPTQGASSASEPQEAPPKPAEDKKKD
Description: Based upon literature, the expression of CLPTM1 in immune cells such as CD8+T-lymphocytes and NK-92 cells, and the GDF15 induced proximity of CLPTM1 to TGFBRI-TGFBRII (through which TGFB1 signals), we investigated whether blockade of CLPTM1 by antibodies could affect the levels of the immune effector NKG2D in NK-92 cells that had been subjected to extended stimulation with GDF15. […] The decrease in NKG2D was reversed in NK-92 cells that had been pre-treated with a binding agent capable of binding to CLPTM1 (an antibody) prior to GDF15 stimulation (FIG. 21B). […] We propose that this may increase their cytotoxicity.

[2] = target: T2, QRFPR (Homo sapiens, UniProt Q96P65); experiment: In situ PLA detection of ACTRIIB-QRFPR proximity in MCF7 cells; conditions: serum-starved MCF7 cells, GDF15 20 minutes; FIG. 3A-B
T2 construct: endogenous in cells
T2 sequence (Q96P65 1-431): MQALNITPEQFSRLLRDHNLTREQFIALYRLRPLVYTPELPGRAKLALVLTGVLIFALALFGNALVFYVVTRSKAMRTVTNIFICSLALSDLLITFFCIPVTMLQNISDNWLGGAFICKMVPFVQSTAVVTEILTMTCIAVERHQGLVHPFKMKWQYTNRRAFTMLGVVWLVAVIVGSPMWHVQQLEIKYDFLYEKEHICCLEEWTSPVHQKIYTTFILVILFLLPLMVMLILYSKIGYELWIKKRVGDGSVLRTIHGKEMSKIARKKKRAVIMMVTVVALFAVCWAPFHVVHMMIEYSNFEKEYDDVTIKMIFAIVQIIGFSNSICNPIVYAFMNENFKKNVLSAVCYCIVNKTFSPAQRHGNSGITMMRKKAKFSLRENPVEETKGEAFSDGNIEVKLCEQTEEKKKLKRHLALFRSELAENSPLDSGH
Procedure: MCF7 cells were stimulated with GDF15 (GDF15 from isolated mammalian source or recombinant derived from E. coli purchased from Abcam and Biovision). An assay was developed for monitoring the activity of GDF15 and to investigate the dynamics of receptor(s) such as QRFPR modulation by the ligand.
Serum-starved MCF7 cells were treated with GDF15, and an in situ PLA detection assay was developed to detect the interaction between ACTRIIB and QRFPR using antibodies from two different species, thus allowing the use of Duolink secondary detection reagents. The presence of the QRFPR-ACTRIIB complex was detected in the absence of GDF15 (see FIG. 3A, indicated by arrows).

[3] = target: T2, QRFPR; experiment: In situ PLA detection of EEA1-QRFPR proximity; conditions: GDF15 5 min; FIG. 3C-D
Description: […] (EEA1) is a marker for rapid endosome formation, and an assay was developed to detect the proximity of EEA1 and QRFPR. In the absence of GDF15, no signal was obtained (FIG. 3C).

[4] = target: T2, QRFPR; experiment: Western blot of QRFPR positive exosomes from conditioned medium of MCF-7 cells; conditions: MCF-7 cells exposed to GDF15 vs not exposed; FIG. 1B
Procedure: Conditioned cell culture media were sequentially centrifuged for 5 min at 3,000 x g to pellet the cells and then at 10,000×g for 10 min to further remove cells and cell debris. The supernatant was then filtered through a 0.45 μm filter and then finally pelleted at 100,000×g for 2 h at 4° c. Pelleted exosomes were resuspended in PBS and protease inhibitor (complete mini, Roche) was added. The samples were then prepared for further analyses as described elsewhere.
Material from the ultracentrifuged pellet was separated on a 12.5% SDS-PAGE gel (Biorad) at 150 v for 80 min, wet transferred to a Immobilon K membrane, blocked with 5% BSA for 1 h RT, and incubated with the corresponding QRFPR antibodies o/n at +4 with mild agitation. The membranes were washed with TBST, and the corresponding secondary antibodies, conjugated to horse radish peroxidase, were applied for 1 hr RT, the membrane washed with TBST and developed using an ECL detection reagent (FIG. 1B).

[5] = system: SMAD2; experiment: Detection of phosphorylated SMAD2 in NK-92 cells; conditions: GDF15 40 min
Procedure: (§1) GDF15 has been reported in the literature to mediate downstream signalling resembling both the canonical (SMAD) pathway mediated by ALK5(TGFBRI) kinase domain, and non-canonical TGFβ receptor signalling, such as phosphorylation of GSK3b. In order to investigate if CLPTM1 was involved in this we developed a set of in situ PLA assays to determine the dynamics between CLPTM1 and the TGFβ receptors and components downstream of the TGFβ receptors. NK-92 cells were treated with GDF15 for 40 min to detect phosphorylated SMAD proteins such as SMAD2 in the nucleus. […] From previous experiments with TGFB1 stimulation we know that the assay (pSMAD2) was functional.

[6] = target: T1, CLPTM1; experiment: In situ PLA detection of the CLPTM1-TGFBRI complex in NK-92 cells; conditions: GDF15 stimulation, FIG. 14
Procedure: as §1

GDF15: Growth and differentiation factor 15, from mammalian source or recombinant from E. coli (Abcam, Biovision)
levels of detectable NKG2D [1]: low levels of detectable NKG2D
ACTRIIB-QRFPR in situ PLA signal [2]: reduced by GDF15 treatment
EEA1-QRFPR proximity (RCA products) [3]: increase the number of RCA products
QRFPR in exosomes from conditioned medium [4]: higher levels of QRFPR in conditioned medium
c-terminal phosphorylated SMAD 2 [5]: failed to detect c-terminal phosphorylated SMAD 2
proximity between CLPTM1 and TGFBRI(ALK5) [6]: induced proximity between CLPTM1 and TGFBRI(ALK5)

From patent US20180282403A1, “AGENTS FOR REDUCING THE ACTIVITY OF GDF15” (GENAGON THERAPEUTICS AB, priority 2015, published 2018)
